# Measurements reported in patent US20120245327.
# B1: lysyl hydroxylase 1 (protein)
# chain: KGDAKPEDNLLVLTVATKETEGFRRFKRSAQFFNYKIQALGLGEDWNVEKGTSAGGGQKVRLLKKALEKHADKEDLVILFTDSYDVLFASGPRELLKKFRQSRSQVVFSAEELIYPDRRLETKYPVVSDGKRFLGSGGFIGYAPNLSKLVAEWEGQDSDSDQLFYTKIFLDPEKREQINITLDHRCRIFQNLDGALDEVVLKFEMGHVRARNLAYDTLPVLIHGNGPTKLQLNYLGNYIPRFWTFETGCTVCDEGLRSLKGIGDEALPTVLVGVFIEQPTPFVSLFFQRLLRLHYPQKHMRLFIHNHEQHHKAQVEEFLAQHGSEYQSVKLVGPEVRMANADARNMGADLCRQDRSCTYYFSVDADVALTEPNSLRLLIQQNKNVIAPLMTRHGRLWSNFWGALSADGYYARSEDYVDIVQGRRVGVWNVPYISNIYLIKGSALRGELQSSDLFHHSKLDPDMAFCANIRQQDVFMFLTNRHTLGHLLSLDSYRTTHLHNDLWEVFSNPEDWKEKYIHQNYTKALAGKLVETPCPDVYWFPIFTEVACDELVEEMEHFGQWSLGNNKDNRIQGGYENVPTIDIHMNQIGFEREWHKFLLEYIAPMTEKLYPGYYTRAQFDLAFVVRYKPDEQPSLMPHHDASTFTINIALNRVGVDYEGGGCRFLRYNCSIRAPRKGWTLMHPGRLTHYHEGLPTTRGTRYIAVSFVDP
# What was measured:
# [1] = target: T1, recombinant human collagen Type III (purified product of TT061226-1-3 strain)
# T1 chain: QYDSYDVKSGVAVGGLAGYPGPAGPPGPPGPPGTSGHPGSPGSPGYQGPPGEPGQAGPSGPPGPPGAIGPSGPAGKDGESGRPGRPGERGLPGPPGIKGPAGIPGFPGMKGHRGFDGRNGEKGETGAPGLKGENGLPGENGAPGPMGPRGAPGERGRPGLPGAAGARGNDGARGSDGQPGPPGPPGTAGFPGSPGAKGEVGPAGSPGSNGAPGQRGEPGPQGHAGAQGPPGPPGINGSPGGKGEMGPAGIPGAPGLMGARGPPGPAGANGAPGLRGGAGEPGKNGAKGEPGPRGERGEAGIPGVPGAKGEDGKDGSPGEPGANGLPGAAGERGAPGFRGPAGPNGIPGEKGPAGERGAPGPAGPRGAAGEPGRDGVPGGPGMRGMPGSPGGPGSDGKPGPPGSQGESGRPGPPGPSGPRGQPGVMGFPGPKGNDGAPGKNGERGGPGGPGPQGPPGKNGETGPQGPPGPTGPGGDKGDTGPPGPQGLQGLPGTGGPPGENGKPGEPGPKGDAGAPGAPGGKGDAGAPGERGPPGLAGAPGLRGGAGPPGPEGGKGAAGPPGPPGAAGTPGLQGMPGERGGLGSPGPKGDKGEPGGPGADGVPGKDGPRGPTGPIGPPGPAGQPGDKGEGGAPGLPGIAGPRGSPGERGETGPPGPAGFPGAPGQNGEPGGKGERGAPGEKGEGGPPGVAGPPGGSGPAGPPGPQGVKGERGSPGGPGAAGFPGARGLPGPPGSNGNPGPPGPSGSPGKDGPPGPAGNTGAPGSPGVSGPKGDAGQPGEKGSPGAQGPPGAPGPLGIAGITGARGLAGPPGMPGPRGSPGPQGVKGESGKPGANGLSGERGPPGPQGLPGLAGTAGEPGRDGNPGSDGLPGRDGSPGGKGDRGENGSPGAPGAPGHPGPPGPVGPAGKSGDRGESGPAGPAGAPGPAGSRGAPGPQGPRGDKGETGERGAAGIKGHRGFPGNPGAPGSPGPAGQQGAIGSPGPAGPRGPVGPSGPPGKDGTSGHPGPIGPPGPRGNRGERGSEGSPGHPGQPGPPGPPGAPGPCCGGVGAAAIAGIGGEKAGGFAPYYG
# [2] = target: recombinant human collagen Type I (purified product of TT080417-1-8 strain)
# Chain of recombinant human collagen Type I (purified product of TT080417-1-8 strain) (chain, as listed by the source, chain 1 of 2): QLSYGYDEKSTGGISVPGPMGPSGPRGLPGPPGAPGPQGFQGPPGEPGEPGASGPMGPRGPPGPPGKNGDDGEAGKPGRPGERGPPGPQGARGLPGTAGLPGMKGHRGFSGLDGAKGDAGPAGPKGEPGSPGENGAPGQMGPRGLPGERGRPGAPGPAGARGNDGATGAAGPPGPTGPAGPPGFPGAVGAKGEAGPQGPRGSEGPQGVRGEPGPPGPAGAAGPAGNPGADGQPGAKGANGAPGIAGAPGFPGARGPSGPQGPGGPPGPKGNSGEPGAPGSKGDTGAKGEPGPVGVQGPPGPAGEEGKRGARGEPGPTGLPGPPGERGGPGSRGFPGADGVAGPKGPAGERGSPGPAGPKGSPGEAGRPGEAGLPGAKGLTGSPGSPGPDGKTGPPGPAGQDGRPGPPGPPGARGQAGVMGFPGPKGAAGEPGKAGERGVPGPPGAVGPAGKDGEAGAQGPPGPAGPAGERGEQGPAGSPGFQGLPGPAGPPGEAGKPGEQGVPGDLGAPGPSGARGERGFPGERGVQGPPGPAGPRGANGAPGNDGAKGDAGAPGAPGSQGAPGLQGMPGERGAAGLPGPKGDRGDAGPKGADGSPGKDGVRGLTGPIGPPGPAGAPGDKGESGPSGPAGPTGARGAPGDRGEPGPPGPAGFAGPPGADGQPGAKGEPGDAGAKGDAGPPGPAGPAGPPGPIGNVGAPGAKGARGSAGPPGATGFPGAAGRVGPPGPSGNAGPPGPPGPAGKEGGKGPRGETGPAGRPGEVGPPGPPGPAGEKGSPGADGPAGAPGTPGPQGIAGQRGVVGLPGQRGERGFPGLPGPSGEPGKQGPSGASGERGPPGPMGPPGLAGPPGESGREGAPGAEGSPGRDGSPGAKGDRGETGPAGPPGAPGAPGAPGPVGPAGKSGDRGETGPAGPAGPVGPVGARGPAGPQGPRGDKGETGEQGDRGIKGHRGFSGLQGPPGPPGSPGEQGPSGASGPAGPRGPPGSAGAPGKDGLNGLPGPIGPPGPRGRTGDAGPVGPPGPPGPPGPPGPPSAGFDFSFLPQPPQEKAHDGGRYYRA
# Chain of recombinant human collagen Type I (purified product of TT080417-1-8 strain) (chain, as listed by the source, chain 2 of 2): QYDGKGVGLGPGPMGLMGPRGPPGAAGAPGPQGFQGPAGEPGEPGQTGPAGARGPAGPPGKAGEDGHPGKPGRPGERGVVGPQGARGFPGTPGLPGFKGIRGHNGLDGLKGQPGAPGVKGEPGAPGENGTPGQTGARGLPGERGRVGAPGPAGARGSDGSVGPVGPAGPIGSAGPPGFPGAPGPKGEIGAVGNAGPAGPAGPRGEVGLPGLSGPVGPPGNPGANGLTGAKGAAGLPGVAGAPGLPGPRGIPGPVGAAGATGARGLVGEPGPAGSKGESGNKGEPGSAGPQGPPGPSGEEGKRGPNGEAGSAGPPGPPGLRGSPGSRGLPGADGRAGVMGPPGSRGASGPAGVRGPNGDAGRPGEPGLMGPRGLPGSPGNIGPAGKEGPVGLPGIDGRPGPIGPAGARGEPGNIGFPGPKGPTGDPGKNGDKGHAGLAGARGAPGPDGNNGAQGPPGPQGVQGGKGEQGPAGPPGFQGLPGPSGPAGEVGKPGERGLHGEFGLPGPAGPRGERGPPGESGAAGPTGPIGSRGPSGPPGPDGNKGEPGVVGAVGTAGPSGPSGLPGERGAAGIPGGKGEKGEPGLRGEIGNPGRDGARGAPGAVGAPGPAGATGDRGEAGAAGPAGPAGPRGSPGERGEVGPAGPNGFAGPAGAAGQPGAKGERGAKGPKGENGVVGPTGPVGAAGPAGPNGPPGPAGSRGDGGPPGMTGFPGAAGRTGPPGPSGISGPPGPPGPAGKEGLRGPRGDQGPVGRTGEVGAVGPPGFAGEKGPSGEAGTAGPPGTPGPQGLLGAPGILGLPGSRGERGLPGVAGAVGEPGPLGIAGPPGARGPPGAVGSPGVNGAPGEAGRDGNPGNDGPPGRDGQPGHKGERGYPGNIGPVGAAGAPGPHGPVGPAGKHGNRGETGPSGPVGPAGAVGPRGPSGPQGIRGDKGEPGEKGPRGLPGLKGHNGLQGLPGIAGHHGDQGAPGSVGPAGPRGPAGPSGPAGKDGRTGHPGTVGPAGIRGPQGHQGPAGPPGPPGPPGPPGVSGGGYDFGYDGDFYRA
protein,measurement,setting,value
B1,composition ratio of hydroxylated lysine to the total lysine residues (amino acid analysis of purified collagen),[1],a composition ratio of hydroxylated lysine to the total lysine residues was increased up to 36.9%
same,composition ratio of hydroxylated lysine to the total lysine residues (amino acid analysis of purified collagen),[2],a composition ratio of the hydroylated lysine to the total lysine residues was increased up to 50.1%
